Laboratory results reported in patent US20230151084A1, “COMPOSITIONS AND METHODS OF […] CELL RESPONSE” (CASE WESTERN RESERVE UNIVERSITY, priority 2015, published 2023).

Tested on: B cells
Assay: BAFF and APRIL B cell growth (viability signaling in B cells)
Type: cell-based
Conditions: added C5a, compared with disabling B cell C3aR/C5aR signaling, which suppressed growth (FIG. 3)
Source text: FIGS. 3(A-B) illustrate graphs showing BAFF and APRIL viability signaling in B cells depends on C3aR/C5aR signaling.
(FIGS. 1(A-C) and FIGS. 2(A-B)). […] (FIGS. 3(A-C)). […] (FIGS. 4(A-B)). Following ova immunization, recipients of adoptively transferred C3ar1^−/−C5ar1^−/− B cells produced reduced IgM Ab and no other isotypes.

B1: C5a: complement anaphylatoxin C5a, ligand of the C5a receptor (C5aR), added to B cells (protein, UniProt P01031 678-751, looked up)
C5a anaphylatoxin: TLQKKIEEIAAKYKHSVVKKCCYDGACVNNDETCEQRAARISLGPRCIKAFTECCVVASQLRANISHKDMQLGR
modifications: C5a anaphylatoxin
notes: complement anaphylatoxin C5a, ligand of the C5a receptor (C5aR), added to B cells
  BAFF and APRIL B cell growth: opposite effect
